Test results reported in the DeepSol protein solubility set.

Test: soluble on expression in E. coli; label from the status in PepcDB or PDB records

Sequence | soluble on expression in E. coli
MKQQDNPLIEQFLDALWLERNLAENTLASYRLDLHALVGWLTHHNSDLLRASPQDLQSFLAERIEGGYKATSSARLLSAMRRLFQYLYREKLREDDPTALLSSPKLPQRLPKDLSEAQVDALLNSPNVDIPLELRDKAMLEVLYATGLRVSELVGLTISDVSLRQGVVRVIGKGNKERLVPLGEEAVYWIENYMEHGRPWLVNGASLDVLFPSNRSQQMTRQTFWHRIKHYAILAGIDSERLSPHVLRHAFATHLLNHGADLRVVQMLLGHSDLSTTQIYTHVATERLRQLHQQHHPRA | not soluble
MLRIVLARSSRAMSSASPASASDSDTSVRKIGKALETYLKHSQQHVAMMEKHRAEFETGRRHLAKMMSLDIHELDQEAIDRAILYLFPSGLTDPNARPVMRPPDEILPKFQRFTFDEEGKPEGSRFFTLSPKIYGLLSDIGVKTHSVMKFYDEHVGSRSVNRSDLEPANLSGSQWVTADKLKKKLSEKFSKELYGQVIIAFEHLASLPGSAIEQKFLMEFREPMTASTGSKLFGPAIPEVHVCAVTNRRYAEVTTRCKDTRATVKVTDAGKGKFDIDGLQLHDFRHLQAREILLAPMIVSQSLGRFDVTATTSCISNTLPEAPNKAPLMRSGGMSALPRAVRHGTALCVAALQPEAIEPLRLSGLLTLDPRKNERSKVNQPGARAKWIWKRR | not soluble
MAHHHHHHMGFLDGKRILLTGLLSNRSIAYGIAKACKREGAELAFTYVGDRFKDRITEFAAEFGSELVFPCDVADDAQIDALFASLKTHWDSLDGLVHSIGFAPREAIAGDFLDGLTRENFRIAHDISAYSFPALAKAALPMLSDDASLLTLSYLGAERAIPNYNTMGLAKAALEASVRYLAVSLGAKGVRVNAISAGPIKTLAASGIKSFGKILDFVESNSPLKRNVTIEQVGNAGAFLLSDLASGVTAEVMHVDSGFNAVVGGMAGLEE | soluble
MTHVTLRSEFETLIDPYAPVAQVGTGFDFTEGPIWHPIDHYLLFSDMPGDVRRRWDARRGMAEVKRPSNKCNGMTYDAELNLIVCEHATSSLIRERPDGRREVLASHFGGQELNSPNDVCVHSSGAIYFSDPWYGRMPVYGVERPRQLGFQGVYRVMPGGEPKLVVDRNLFDQPNGLCFSPDERLLYVNDTVQALIRVFDVNADGTLSNARVFASSIKSELEPGLPDGMKCDQHGNVWVTAPGGVWVYSPRGELLGKVRVPELVANLAWGGPDFRTLYLTSTHSVYAIPTRVGPRHEPYMSGRRGGAGASAGPAAAAPILTDGEMRLDPQRCAMIIQDLQNDVIMDGGAFDGSGAPAHAKQQHVVENVRRLAEAARARGVAIIHVWFVVEPGAPGVTLNAPLFEGLVDSKAMVRGSWGAAPVSGLEPRPGDFVVEKMRMSAWEGTRLETILKATGRDMIINTGAWTNMSVEHTARTGADKGYFMIVPEDCCSTMNADWHSASINFAMQNVAIVTRADAVIRALGLEHHHHHH | not soluble
MGSDKIHHHHHHMQIGEVYFWTSTIKDWKNLLHQDKYKLLIIHCLKELVDRKMIKVYAFVIMPNHIHIVWEMLDQNGKEMPHASFNKKTAHEIVKDLKFNHPLVLPFFKVNEKEREYRIWQRDPLAIEMDSKKKAEQKIDYIHKNPLHERWNLAASPEEYYWSSAMYYQTGEDKFGFLTHYMERF | not soluble
GWQAFKNDATEIIPELGEYPEPPPELENNKTMNRAENGGRPPHHPFETKDVSEYSCRELHFTRYVTDGPCRSAKPVTELVCSGQCGPARLLPNAIGRGKWWRPSGPDFRCIPDRYRAQRVQLLCPGGEAPRARKVRLVASCKCKRLTRFHNQSELKDFGTEAARPQKGRKPRPRARSAKANQAELENAY | soluble
MKVNDRVTVKTDGGPRRPGVVLAVEEFSEGTMYLVSLEDYPLGIWFFNEAGHQDGIFVEKAE | soluble
MSLTIAHLTSSAFAVNKERNKFLMIHHNIYNSWAWTGGHSDNEKDQLKVAIKELKEETGVKNPTPLLDKAFALDVLTVNGHIKRGKYVSSHLHLNLTYLIECSEDETLMLKEDENSGVMWIPFNEISKYCSEPHMIPIYEKLINKLKTQSKEGHHHHHH | not soluble
MIRELFEKEGFTLDEEQERKFSIYLQELLRWNKVHNLTSIKKPEEIVRRHFIDSVSVVRCFERIGLDLRGKHFADVGSGAGFPGVPLKIYLKDIKLTLIESVSKKCSFLEYLKIKLNEDYRVLCTRAEKVEEKFDVVLARALGEFEEVKEILEKLSIGYVFVYKGSKLKEEWLKDYKLCELSLSFMPKSYILWKKV | soluble
